Here are results for three substances from patent publication US20180263919A1, “THERAPEUTIC ELECTROSPUN FIBER COMPOSITIONS” (The Johns Hopkins University, priority 2006, published 2018).

For data set [1] the following is noted: rat, in vivo; cited from earlier work.
Data set [2] relates to PC12 cells. To be noted: Thoenen and Bard; cited from earlier work.
Data set [3] relates to PC12 cells. The data set is described as follows: Bioactivity of released NGF: differentiation of PC12 cells into neurons. It is filed as cell-based, rat. To be noted: positive control, fresh NGF at 400 ng/ml.
The conditions of data set [4]: in vivo, iv; cited from earlier work.

As for “NGF: Recombinant human n-nerve growth factor (NGF) from R&D Systems”, the elimination half-life result in data set [1] is “less than 5 hours”. The “threshold for induction of PC12 cell differentiation” value with PC12 cells [2] is “around 0.5 ng/ml”. For the same substance, the “percentage of PC12 cells induced to differentiate” value with PC12 cells [3] was 20-55%. Take PDGF: the biologic half-life in data set [4] is 2 minutes. On to bFGF: basic fibroblast growth factor, for which the biologic half-life in data set [4] is 3 minutes.
